Measurements taken from patent US20210371518A1 (University of Texas, published 2021).

Biological target: T1, human LILRB4 extracellular domain (ECD) recombinant protein (human, UniProt Q8NHJ6 22-259)
T1 construct: extracellular domain; also called LILRB4 ECD; LILRB4-ECD
Experiment: ELISA, LILRB4 recombinant protein coated, anti-human IgG F(ab)2-HRP

EC50 (read off the curve): ~0.03 µg/mL
B1: h193 (antibody, V domains shown)
VH: EVQLVESGGGLVQPGGSLRLSCAASGFSLSSSYWISWVRQAPGKGLEWIGSIDSGSVGITYYATWVKGRFTISRDNSKNTLYLQMNSLRAEDTAVYYCARHGDNWALDLWGQGTLVTVSS
VL: DLVMTQSPSTLSASVGDRVTITCQASQSINSWLAWYQQKPGKPPKLLIYKASTLASGVSSRFSGSGSGTEFTLTISSLQPDDVATYYCQHGYIRGDLDNVFGGGTKVEIKR
